Test results taken from paper PMC7367873, “Dissecting the sequence determinants for dephosphorylation by the catalytic subunits of phosphatases PP1 and PP2A” (Nature Communications, 2020).

Assays:
[1] = tested on: GFP-14-3-3β; experiment: GFP-14-3-3β co-IP with LC-MS/MS, untreated GFP-14-3-3β versus GFP control (14-3-3 interactome); type: binding, human; settings: 3 replicates each
[2] = tested on: GFP-14-3-3β and its binding proteins; experiment: GFP-14-3-3β co-IP with LC-MS/MS label-free quantification, untreated versus PP1c-treated; set-up: species or system human; settings: 3 replicates each
[3] = untreated vs GFP, LFQ intensities
[4] = PP1 vs untreated, LFQ intensities
[5] = log2 difference, pairwise comparison untreated vs GFP, label-free quantification
[6] = log2 difference, pairwise comparison PP1 vs untreated, label-free quantification

Molecule	Difference (log2), untreated vs GFP [1, 3]	Difference (log2), PP1 vs untreated [2, 4]	Difference (log2), untreated vs GFP [1, 5]	Difference (log2), PP1 vs untreated [2, 6]
RRBP1 (protein, UniProt Q9P2E9 1-1410, looked up) Ribosome-binding protein 1: MDIYDTQTLGVVVFGGFMVVSAIGIFLVSTFSMKETSYEEALANQRKEMAKTHHQKVEKKKKEKTVEKKGKTKKKEEKPNGKIPDHDPAPNVTVLLREPVRAPAVAVAPTPVQPPIIVAPVATVPAMPQEKLASSPKDKKKKEKKVAKVEPAVSSVVNSIQVLTSKAAILETAPKEVPMVVVPPVGAKGNTPATGTTQGKKAEGTQNQSKKAEGAPNQGRKAEGTPNQGKKTEGTPNQGKKAEGTPNQGKKAEGTPNQGKKAEGAQNQGKKVDTTPNQGKKVEGAPTQGRKAEGAQNQAKKVEGAQNQGKKAEGAQNQGKKGEGAQNQGKKAEGAQNQGKKAEGAQNQGKKAEGAQNQGKKAEGAQNQGKKAEGAQNQGKKAEGAQNQGKKVEGAQNQGKKAEGAQNQGKKAEGAQNQGKKAEGAQNQGKKAEGAQNQGKKAEGAQNQGKKAEGAQNQGKKAEGAQNQGKKVEGAQNQGKKAEGAQNQGKKAEGAQNQGKKAEGAQNQGQKGEGAQNQGKKTEGAQGKKAERSPNQGKKGEGAPIQGKKADSVANQGTKVEGITNQGKKAEGSPSEGKKAEGSPNQGKKADAAANQGKKTESASVQGRNTDVAQSPEAPKQEAPAKKKSGSKKKGEPGPPDADGPLYLPYKTLVSTVGSMVFNEGEAQRLIEILSEKAGIIQDTWHKATQKGDPVAILKRQLEEKEKLLATEQEDAAVAKSKLRELNKEMAAEKAKAAAGEAKVKKQLVAREQEITAVQARMQASYREHVKEVQQLQGKIRTLQEQLENGPNTQLARLQQENSILRDALNQATSQVESKQNAELAKLRQELSKVSKELVEKSEAVRQDEQQRKALEAKAAAFEKQVLQLQASHRESEEALQKRLDEVSRELCHTQSSHASLRADAEKAQEQQQQMAELHSKLQSSEAEVRSKCEELSGLHGQLQEARAENSQLTERIRSIEALLEAGQARDAQDVQASQAEADQQQTRLKELESQVSGLEKEAIELREAVEQQKVKNNDLREKNWKAMEALATAEQACKEKLLSLTQAKEESEKQLCLIEAQTMEALLALLPELSVLAQQNYTEWLQDLKEKGPTLLKHPPAPAEPSSDLASKLREAEETQSTLQAECDQYRSILAETEGMLRDLQKSVEEEEQVWRAKVGAAEEELQKSRVTVKHLEEIVEKLKGELESSDQVREHTSHLEAELEKHMAAASAECQNYAKEVAGLRQLLLESQSQLDAAKSEAQKQSDELALVRQQLSEMKSHVEDGDIAGAPASSPEAPPAEQDPVQLKTQLEWTEAILEDEQTQRQKLTAEFEEAQTSACRLQEELEKLRTAGPLESSETEEASQLKERLEKEKKLTSDLGRAATRLQELLKTTQEQLAREKDTVKKLQEQLEKAEDGSSSKEGTSV	-0.1928 log2	0.6577 log2	–	–
DDX3X;DDX3Y (protein, UniProt O00571 2-662, looked up, or DDX3Y) ATP-dependent RNA helicase …: SHVAVENALGLDQQFAGLDLNSSDNQSGGSTASKGRYIPPHLRNREATKGFYDKDSSGWSSSKDKDAYSSFGSRSDSRGKSSFFSDRGSGSRGRFDDRGRSDYDGIGSRGDRSGFGKFERGGNSRWCDKSDEDDWSKPLPPSERLEQELFSGGNTGINFEKYDDIPVEATGNNCPPHIESFSDVEMGEIIMGNIELTRYTRPTPVQKHAIPIIKEKRDLMACAQTGSGKTAAFLLPILSQIYSDGPGEALRAMKENGRYGRRKQYPISLVLAPTRELAVQIYEEARKFSYRSRVRPCVVYGGADIGQQIRDLERGCHLLVATPGRLVDMMERGKIGLDFCKYLVLDEADRMLDMGFEPQIRRIVEQDTMPPKGVRHTMMFSATFPKEIQMLARDFLDEYIFLAVGRVGSTSENITQKVVWVEESDKRSFLLDLLNATGKDSLTLVFVETKKGADSLEDFLYHEGYACTSIHGDRSQRDREEALHQFRSGKSPILVATAVAARGLDISNVKHVINFDLPSDIEEYVHRIGRTGRVGNLGLATSFFNERNINITKDLLDLLVEAKQEVPSWLENMAYEHHYKGSSRGRSKSSRFSGGFGARDYRQSSGASSSSFSSSRASSSRSGGGGHGSSRGFGGGGYGGFYNSDGYGGNYNSQGVDWWGN	0.1796 log2	0.6546 log2	–	–
SSR4 (protein, UniProt P51571 24-173, looked up) Translocon-associated protein …: EACLEPQITPSYYTTSDAVISTETVFIVEISLTCKNRVQNMALYADVGGKQFPVTRGQDVGRYQVSWSLDHKSAHAGTYEVRFFDEESYSLLRKAQRNNEDISIIPPLFTVSVDHRGTWNGPWVSTEVLAAAIGLVIYYLAFSAKSHIQA	–	–	0.4182	2.257
NOP58 (protein, UniProt Q9Y2X3 1-529, looked up) Nucleolar protein 58: MLVLFETSVGYAIFKVLNEKKLQEVDSLWKEFETPEKANKIVKLKHFEKFQDTAEALAAFTALMEGKINKQLKKVLKKIVKEAHEPLAVADAKLGGVIKEKLNLSCIHSPVVNELMRGIRSQMDGLIPGVEPREMAAMCLGLAHSLSRYRLKFSADKVDTMIVQAISLLDDLDKELNNYIMRCREWYGWHFPELGKIISDNLTYCKCLQKVGDRKNYASAKLSELLPEEVEAEVKAAAEISMGTEVSEEDICNILHLCTQVIEISEYRTQLYEYLQNRMMAIAPNVTVMVGELVGARLIAHAGSLLNLAKHAASTVQILGAEKALFRALKSRRDTPKYGLIYHASLVGQTSPKHKGKISRMLAAKTVLAIRYDAFGEDSSSAMGVENRAKLEARLRTLEDRGIRKISGTGKALAKTEKYEHKSEVKTYDPSGDSTLPTCSKKRKIEQVDKEDEITEKKAKKAKIKVKVEEEEEEKVAEEEETSVKKKKKRGKKKHIKEEPLSEEEPCTSTAIASPEKKKKKKKKRENED	1.325 log2	0.6296 log2	–	–
MMS19 (protein, UniProt Q96T76 2-1030, looked up) MMS19 nucleotide excision …: AAAAAVEAAAPMGALWGLVHDFVVGQQEGPADQVAADVKSGNYTVLQVVEALGSSLENPEPRTRARAIQLLSQVLLHCHTLLLEKEVVHLILFYENRLKDHHLVIPSVLQGLKALSLCVALPPGLAVSVLKAIFQEVHVQSLPQVDRHTVYNIITNFMRTREEELKSLGADFTFGFIQVMDGEKDPRNLLVAFRIVHDLISRDYSLGPFVEELFEVTSCYFPIDFTPPPNDPHGIQREDLILSLRAVLASTPRFAEFLLPLLIEKVDSEVLSAKLDSLQTLNACCAVYGQKELKDFLPSLWASIRREVFQTASERVEAEGLAALHSLTACLSRSVLRADAEDLLDSFLSNILQDCRHHLCEPDMKLVWPSAKLLQAAAGASARACDSVTSNVLPLLLEQFHKHSQSSQRRTILEMLLGFLKLQQKWSYEDKDQRPLNGFKDQLCSLVFMALTDPSTQLQLVGIRTLTVLGAQPDLLSYEDLELAVGHLYRLSFLKEDSQSCRVAALEASGTLAALYPVAFSSHLVPKLAEELRVGESNLTNGDEPTQCSRHLCCLQALSAVSTHPSIVKETLPLLLQHLWQVNRGNMVAQSSDVIAVCQSLRQMAEKCQQDPESCWYFHQTAIPCLLALAVQASMPEKEPSVLRKVLLEDEVLAAMVSVIGTATTHLSPELAAQSVTHIVPLFLDGNVSFLPENSFPSRFQPFQDGSSGQRRLIALLMAFVCSLPRNVEIPQLNQLMRELLELSCCHSCPFSSTAAAKCFAGLLNKHPAGQQLDEFLQLAVDKVEAGLGSGPCRSQAFTLLLWVTKALVLRYHPLSSCLTARLMGLLSDPELGPAAADGFSLLMSDCTDVLTRAGHAEVRIMFRQRFFTDNVPALVQGFHAAPQDVKPNYLKGLSHVLNRLPKPVLLPELPTLLSLLLEALSCPDCVVQLSTLSCLQPLLLEAPQVMSLHVDTLVTKFLNLSSSPSMAVRIAALQCMHALTRLPTPVLLPYKPQVIRALAKPLDDKKRLVRKEAVSARGEWFLLGSPGS	1.425 log2	0.6094 log2	–	–
BBX (protein, UniProt Q8WY36 1-941, looked up) HMG box transcription factor …: MKGSNRNKDHSAEGEGVGKRPKRKCLQWHPLLAKKLLDFSEEEEEEDEEEDIDKVQLLGADGLEQDVGETEDDESPEQRARRPMNAFLLFCKRHRSLVRQEHPRLDNRGATKILADWWAVLDPKEKQKYTDMAKEYKDAFMKANPGYKWCPTTNKPVKSPTPTVNPRKKLWAFPSDSSRDLPSPKKAKTEEMPQLNFGMADPTQMGGLSMLLLAGEHALGTPEVSSGTCRPDVSESPELRQKSPLFQFAEISSSTSHSDASTKQCQTSALFQFAEISSNTSQLGGAEPVKRCGKSALFQLAEMCLASEGMKMEESKLIKAKESDGGRIKELEKGKEEKEIKMEKTDETRLQKEAEFEKSAKENLRDSKELRNFEALQIDDIMAIKMEDPKEIRKEELEEDHKCSHFPDFSYSASSKIIISDVPSRKDHMCHPHGIMIIEDPAALNKPEKLKKKKKKSKMDRHGNDKSTPKKTCKKRQSSESDIESVIYTIEAVAKGDWGIEKLGDTPRKKVRTSSSGKGSILDAKPPKKKVKSREKKMSKEKSSDTTKESRPPDFISISASKNISGETPEGIKAEPLTPMEDALPPSLSGQAKPEDSDCHRKIETCGSRKSERSCKGALYKTLVSEGMLTSLRANVDRGKRSSGKGNSSDHEGCWNEESWTFSQSGTSGSKKFKKTKPKEDCLLGSAKLDEEFEKKFNSLPQYSPVTFDRKCVPVPRKKKKTGNVSSEPTKTSKGPFQSQKKNLFHKIVSKYKHKKEKPNVPEKGSGDKWSNKQLFLDAIHPTEAIFSEDRNTMEPVHKVKNIPSIFNTPEPTTTQEPLVGSQKRKARKTKITHLVRTADGRVSPAGGTLDDKPKEQLQRSLPKATETDCNDKCSHNTEVGETRSSTPEMPAVSAFFSLAALAEVAAMENVHRGQRSTPLTHDGQPKEMPQAPVLISCADQ	0.1239 log2	0.6283 log2	–	–
DDX20 (protein, UniProt Q9UHI6 1-824, looked up) Probable ATP-dependent RNA …: MAAAFEASGALAAVATAMPAEHVAVQVPAPEPTPGPVRILRTAQDLSSPRTRTGDVLLAEPADFESLLLSRPVLEGLRAAGFERPSPVQLKAIPLGRCGLDLIVQAKSGTGKTCVFSTIALDSLVLENLSTQILILAPTREIAVQIHSVITAIGIKMEGLECHVFIGGTPLSQDKTRLKKCHIAVGSPGRIKQLIELDYLNPGSIRLFILDEADKLLEEGSFQEQINWIYSSLPASKQMLAVSATYPEFLANALTKYMRDPTFVRLNSSDPSLIGLKQYYKVVNSYPLAHKVFEEKTQHLQELFSRIPFNQALVFSNLHSRAQHLADILSSKGFPAECISGNMNQNQRLDAMAKLKHFHCRVLISTDLTSRGIDAEKVNLVVNLDVPLDWETYMHRIGRAGRFGTLGLTVTYCCRGEEENMMMRIAQKCNINLLPLPDPIPSGLMEECVDWDVEVKAAVHTYGIASVPNQPLKKQIQKIERTLQIQKAHGDHMASSRNNSVSGLSVKSKNNTKQKLPVKSHSECGIIEKATSPKELGCDRQSEEQMKNSVQTPVENSTNSQHQVKEALPVSLPQIPCLSSFKIHQPYTLTFAELVEDYEHYIKEGLEKPVEIIRHYTGPGDQTVNPQNGFVRNKVIEQRVPVLASSSQSGDSESDSDSYSSRTSSQSKGNKSYLEGSSDNQLKDSESTPVDDRISLEQPPNGSDTPNPEKYQESPGIQMKTRLKEGASQRAKQSRRNLPRRSSFRLQTEAQEDDWYDCHREIRLSFSDTYQDYEEYWRAYYRAWQEYYAAASHSYYWNAQRHPSWMAAYHMNTIYLQEMMHSNQ	–	–	-0.1781	2.218
